Patent publication US20260049160A1 (Hoffmann-La Roche, published 2026)
Numbering of substitutions follows the chain as printed.

T1: human Ang-2-RBD-Fc (human, UniProt O15123 275-496, limits assumed)
T1 construct: domain: RBD; not shown: Fc part
T1 sequence (looked up): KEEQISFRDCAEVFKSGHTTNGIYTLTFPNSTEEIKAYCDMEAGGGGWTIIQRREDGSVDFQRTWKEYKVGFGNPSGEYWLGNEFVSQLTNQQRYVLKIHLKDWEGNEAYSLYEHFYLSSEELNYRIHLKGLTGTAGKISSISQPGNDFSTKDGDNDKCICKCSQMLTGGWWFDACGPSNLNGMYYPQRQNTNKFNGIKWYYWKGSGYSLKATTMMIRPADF

T2: human VEGF-A-121-His (human, UniProt P15692-9 27-147)
T2 construct: also called VEFG-A-121-His; not shown: His tag
T2 sequence (looked up): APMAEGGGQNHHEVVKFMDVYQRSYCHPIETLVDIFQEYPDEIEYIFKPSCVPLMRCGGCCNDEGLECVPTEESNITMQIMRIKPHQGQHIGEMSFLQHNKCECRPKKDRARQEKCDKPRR

B1: Chimeric TIM3-0018 (antibody, V domains shown)
VH: QVTLKESGPGILQPSQTLSLTCSFSGFSLSTSGMSVGWIRQPSGKGLEWLAHIWLNDDVFFNPALKRRLTISKDTSNNQVFLQIASVVTADTATYYCVRANGYLYALDYWGQGISVTVSS
VL: QIVLTQSPAIMSASPGQKVTITCSASSSVNYTQWYQQKLGSSPKLWIYDAFKLAPGVPARFSGSGTGTSYSLTISSMEAEDAASYFCHQWSSYPWTFGGGTKLEIK
notes: Bivalent IgG; also called TIM3 IgG (bivalent); copies: 2 + 2
B2: 2 + 2 PD1TIM3_0358: chimeric PD1-0103/Tim3-0028 (bispecific antibody, human IgG1, kappa, L234A L235A)
heavy: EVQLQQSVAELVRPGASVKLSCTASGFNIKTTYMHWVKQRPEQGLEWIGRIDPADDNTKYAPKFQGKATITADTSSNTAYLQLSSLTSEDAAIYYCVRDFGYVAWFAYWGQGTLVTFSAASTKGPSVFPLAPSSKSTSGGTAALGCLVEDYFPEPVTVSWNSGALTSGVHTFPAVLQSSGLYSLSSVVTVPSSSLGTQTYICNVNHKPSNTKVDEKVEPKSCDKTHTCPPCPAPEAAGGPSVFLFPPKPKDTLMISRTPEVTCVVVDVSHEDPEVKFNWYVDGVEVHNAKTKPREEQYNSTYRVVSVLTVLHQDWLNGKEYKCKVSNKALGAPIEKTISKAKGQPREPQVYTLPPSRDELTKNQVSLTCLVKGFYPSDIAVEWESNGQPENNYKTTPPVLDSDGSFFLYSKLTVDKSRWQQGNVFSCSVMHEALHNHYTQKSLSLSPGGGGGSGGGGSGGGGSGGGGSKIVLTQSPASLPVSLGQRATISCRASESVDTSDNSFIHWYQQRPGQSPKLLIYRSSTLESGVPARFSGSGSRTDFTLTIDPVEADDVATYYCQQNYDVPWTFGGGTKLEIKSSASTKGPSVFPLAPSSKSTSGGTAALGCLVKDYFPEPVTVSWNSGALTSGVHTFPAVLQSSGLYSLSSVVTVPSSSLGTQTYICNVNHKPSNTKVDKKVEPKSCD
light 1: NIVMTPTPKFLPVSSGDRVTMTCRASQSVDNYVAWYQQKPGQSPKLLIYYASNRYIGVPDRFTGSGSGTDFTFTISSVQVEDLAVYFCQQHYSSPYTFGSGTKLEIKRTVAAPSVFIFPPSDRKLKSGTASVVCLLNNFYPREAKVQWKVDNALQSGNSQESVTEQDSKDSTYSLSSTLTLSKADYEKHKVYACEVTHQG
light 2: EVILVESGGGLVKPGGSLKLSCAASGFSFSSYTMSWVRQTPEKRLDWVATISGGGRDIYYPDSVKGRFTISRDNAKNTLYLEMSSLMSEDTALYYCVLLTGRVYFALDSWGQGTSVTVSSASVAAPSVFIFPPSDEQLKSGTASVVCLLNNFYPREAKVQWKVDNALQSGNSQESVTEQDSKDSTYSLSSTLTLSKADYEKHKVYACEVTHQGLSSPVTKSFNRGEC
notes: Tetravalent 2+2 CrossMAb VH-VL with charged substitutions in the CH1/CL interfaces; also called PD1TIM3-0358 (2 + 2)
B3: Ang2VEGF-0273 (bispecific antibody, human IgG1, kappa)
light 1: QPGLTQPPSVSVAPGQTARITCGGNNIGSKSVHWYQQKPGQAPVLVVYDDSDRPSGIPERFSGSNSGNTATLTISRVEAGDEADYYCQVWDSSSDHYVFGTGTKVTVLRTVAAPSVFIFPPSDEQLKSGTASVVCLLNNFYPREAKVQWKVDNALQSGNSQESVTEQDSKDSTYSLSSTLTLSKADYEKHKVYACEVTHQGLSSPVTKSFNRGEC
heavy 1: not shown
heavy 2: not shown
light 2: EVQLVESGGGLVQPGGSLRLSCAASGYTFTNYGMNWVRQAPGKGLEWVGWINTYTGEPTYAADFKRRFTFSLDTSKSTAYLQMNSLRAEDTAVYYCAKYPHYYGSSHWYFDVWGQGTLVTVSSASVAAPSVFIFPPSDEQLKSGTASVVCLLNNFYPREAKVQWKVDNALQSGNSQESVTEQDSKDSTYSLSSTLTLSKADYEKHKVYACEVTHQGLSSPVTKSFNRGEC
notes: Bivalent CrossMab, non-crossed ANG2 arm and VH/VL-crossed VEGF arm; wild type CH1/CL interface (control)
B4: Ang2VEGF-0274 (bispecific antibody, human IgG1, kappa)
light 1: B3 light 1 with E124K, Q125K
heavy 1: not shown
heavy 2: not shown
light 2: B3 light 2
notes: Bivalent CrossMab; knobs-into-holes
B5: Ang2VEGF-0282 (bispecific antibody, human IgG1, kappa)
light 1: B3 light 1 with E124K, Q125R
heavy 1: not shown
heavy 2: not shown
light 2: B3 light 2 with Q140E
notes: as for B4
B6: Ang2VEGF-0284 (bispecific antibody, human IgG1, kappa)
light 1: B3 light 1 with E124K, Q125R
heavy 1: not shown
heavy 2: not shown
light 2: B3 light 2
notes: as for B4
B7: Ang2VEGF-0285 (bispecific antibody, human IgG1, kappa)
light 1: B3 light 1 with E124K, Q125R
heavy 1: not shown
heavy 2: not shown
light 2: B3 light 2 with Q140E
notes: as for B4
B8: Ang2VEGF-0286 (bispecific antibody, human IgG1, kappa)
light 1: B3 light 1 with E124K, Q125K
heavy 1: not shown
heavy 2: not shown
light 2: B3 light 2 with Q140E
notes: as for B4
B9: Ang2VEGF-0394 (bispecific antibody, human IgG1, kappa)
light 1: B3 light 1 with E124K
heavy 1: not shown
heavy 2: not shown
light 2: B3 light 2
notes: as for B4
B10: Ang2VEGF-0395 (bispecific antibody, human IgG1, kappa)
light 1: B3 light 1 with E124K
heavy 1: not shown
heavy 2: not shown
light 2: B3 light 2
notes: as for B4
B11: Ang2VEGF-0396 (bispecific antibody, human IgG1, kappa)
light 1: B3 light 1 with Q125K
heavy 1: not shown
heavy 2: not shown
light 2: B3 light 2
notes: as for B4
B12: Ang2VEGF-0397 (bispecific antibody, human IgG1, kappa)
light 1: B3 light 1 with Q125K
heavy 1: not shown
heavy 2: not shown
light 2: B3 light 2
notes: as for B4
B13: Ang2VEGF-0283 (bispecific antibody, human IgG1, lambda)
light 1: QPGLTQPPSVSVAPGQTARITCGGNNIGSKSVHWYQQKPGQAPVLVVYDDSDRPSGIPERFSGSNSGNTATLTISRVEAGDEADYYCQVWDSSSDHYVFGTGTKVTVLGQPKAAPSVTLFPPSSKKLQANKATLVCLISDFYPGAVTVAWKADSSPVKAGVETTTPSKQSNNKYAASSYLSLTPEQWKSHRSYSCQVTHEGSTVEKTVAPTECS
heavy 1: not shown
heavy 2: not shown
light 2: B3 light 2
notes: as for B4
B14: Chimeric TIM3-0028 (antibody, V domains shown)
VH: EVQLQQSVAELVRPGASVKLSCTASGFNIKTTYMHWVKQRPEQGLEWIGRIDPADDNTKYAPKFQGKATITADTSSNTAYLQLSSLTSEDAAIYYCVRDFGYVAWFAYWGQGTLVTFSA
VL: NIVMTPTPKFLPVSSGDRVTMTCRASQSVDNYVAWYQQKPGQSPKLLIYYASNRYIGVPDRFTGSGSGTDFTFTISSVQVEDLAVYFCQQHYSSPYTFGSGTKLEIK
notes: as for B1
B15: DR5TAA-0077 (bispecific antibody, human IgG1, kappa)
light 1: not shown
heavy: not shown
light 2: EIVLTQSPGTLSLSPGERATLSCRASQSVSRSYLAWYQQKPGQAPRLLIIGASTRATGIPDRFSGSGSGTDFTLTISRLEPEDFAVYYCQQGQVIPPTFGQGTKVEIKRTVAAPSVFIFPPSDEQLKSGTASVVCLLNNFYPREAKVQWKVDNALQSGNSQESVTEQDSKDSTYSLSSTLTLSKADYEKHKVYACEVTHQGLSSPVTKSFNRGEC
notes: Tetravalent 2+2: DR5 core antibody (VH/VL crossover on DR5) with two FAP Fabs fused to the HC C-termini; wild type CH1/CL interface; also called DR5TAA-0077 (control)
B16: DR5TAA-0078 (bispecific antibody)
light 1: EIVLTQSPGTLSLSPGERATLSCRASQSVSSSYLAWYQQKPGQAPRLLIYGASSRATGIPDRFSGSGSGTDFTLTISRLEPEDFAVYYCQQGTTHPITFGQGTKVEIKSSASTKGPSVFPLAPSSKSTSGGTAALGCLVKDYFPEPVTVSWNSGALTSGVHTFPAVLQSSGLYSLSSVVTVPSSSLGTQTYICNVNHKPSNTKVDKKVEPKSCD
heavy: not shown
light 2: B15 light 2
notes: Tetravalent 2+2: DR5 core antibody with CH1-CL crossover on DR5 (instead of VH/VL), two FAP Fabs fused to the HC C-termini; wild type CH1/CL interface; also called DR5TAA-0078 (control)
B17: DR5TAA-0081 (bispecific antibody, human IgG1, kappa, L234A L235A)
light 1: EVQLLESGGGLVQPGGSLRLSCAASGFTFSSHAMSWVRQAPGKGLEWVSAIWASGEQYYADSVKGRFTISRDNSKNTLYLQMNSLRAEDTAVYYCAKGWLGNFDYWGQGTLVTVSSASVAAPSVFIFPPSDEQLKSGTASVVCLLNNFYPREAKVQWKVDNALQSGNSQESVTEQDSKDSTYSLSSTLTLSKADYEKHKVYACEVTHQGLSSPVTKSFNRGEC
heavy: not shown
light 2: B15 light 2 with R31S, I50Y, T54S, Q93T, V94T, I95H, P97I
notes: Tetravalent 2+2: DR5 core antibody with two VH/VL-crossed FAP Fabs fused to the HC C-termini; wild type CH1/CL interface; the set of three chains is the same; also called DR5TAA-0081 (control)
B18: DR5TAA-0082 (bispecific antibody, human IgG1, kappa, L234A L235A)
light 1: B15 light 2 with R31S, I50Y, T54S, Q93T, V94T, I95H, P97I, E124R, Q125K
heavy: not shown
light 2: B17 light 1 with Q133E
notes: Tetravalent 2+2, VH/VL crossover on FAP
B19: DR5TAA-0083 (bispecific antibody, human IgG1, kappa, L234A L235A)
light 1: not shown
heavy: not shown
light 2: B15 light 2 with E124R, Q125K
notes: Tetravalent 2+2, VH/VL crossover on DR5

Biological target: T3, biotinylated Tim3-ECD-AviHis (human, UniProt Q8TDQ0 22-202, biotinylated (Avi tag))
T3 construct: extracellular domain; also called huTIM3; hu Tim3; not shown: Avi and His tags
Assay: ELISA, biotinylated Tim3-ECD-AviHis on streptavidin plates

Binder | EC50
B1 | 0.15 nM
B2 | 0.19 nM

Biological target: T1, human Ang-2-RBD-Fc
Assay: SPR (Biacore T200), antibody captured via anti-human F(ab')2, Ang2-RBD-Fc in solution, apparent KD, 1:1 Langmuir
Procedure: Binding of indicated antibodies to human Ang-2-RBD-Fc was investigated by surface plasmon resonance using a BIACORE™ T200 instrument (GE Healthcare). […] HBS-N (10 mM HEPES, 150 mM NaCl pH 7.4, GE Healthcare) was used as running buffer during the immobilization procedure. For the following kinetic characterization, sample and running buffer was PBS-T (10 mM phosphate buffered saline including 0.05% Tween® 20) at pH 7.4. The flow cell was set to 25° C.—and the sample block set to 12° C.—and primed with running buffer twice prior to kinetic characterization.
The bispecific antibody was captured by injecting a 5 nM solution for 25 sec at a flow of 5 μl/min. The association was measured by injection of human Ang2-RBD-Fc in various concentrations in solution for 120 sec at a flow of 30 μl/min starting with 100 nM in 1:3 serial dilutions. The dissociation phase was monitored for up to 180 sec and triggered by switching from the sample solution to running buffer. The surface was regenerated by 60 sec washing with a Glycine pH 2.1 solution at a flow rate of 30 μl/min. Bulk refractive index differences were corrected by subtracting the response obtained from a goat anti human F(ab′)₂ surface. Blank injections are also subtracted (=double referencing). For calculation of apparent KD the Langmuir 1:1 model was used.

Binder | Kd
B3 | 15 nM
B4 | 17 nM
B5 | 14 nM
B6 | 13 nM
B7 | 14 nM
B8 | 12 nM
B9 | 12 nM
B10 | 15 nM
B11 | 17 nM
B12 | 14 nM
B13 | 15 nM

Biological target: T4, biotinylated PD1-ECD-AviHis (human, UniProt Q15116 25-170, biotinylated (Avi tag))
T4 construct: extracellular domain; also called huPD1; hu PD1; not shown: Avi and His tags
Assay: ELISA, biotinylated PD1-ECD-AviHis on streptavidin plates

Binder | EC50
B2 | 0.08 nM

Biological target: T5, human Tim3-ECD (human, UniProt Q8TDQ0 22-202)
T5 construct: extracellular domain; Analyte of the Biacore assay; also called hu Tim3-ECD
Assay: SPR (Biacore T200), antibody captured via anti-human Fab IgG, human Tim3-ECD in solution, 1:1 Langmuir; 2 + 2 bispecific format, Tim3-arm
Procedure: The sample and running buffer was HBS-EP+ (0.01 M HEPES, 0.15 M NaCl, 3 mM EDTA, 0.05% v/v Surfactant P20, pH 7.4). Flow cell temperature was set to 25° C. and sample compartment temperature to 12° C. The system was primed with running buffer.
Different samples were injected for 30 seconds with a concentration of 10 nM and bound consecutively to the flow cells 2, 3 and 4. […] Finally the double referenced data was fitted to a 1:1 langmuir interaction model with the Biacore™ T200 Evaluation Software.

Binder | Kd
B2 | 2.2 nM

Biological target: T4, biotinylated PD1-ECD-AviHis
Assay: ELISA on biotinylated PD1-ECD-AviHis
Procedure: After washing (3×90 μl/well with PBST-buffer) 25 μl anti PD1 antibody samples were added in increasing concentrations and incubated 1h at RT. After washing (3×90 μl/well with PBST-buffer) 25 μl/well goat-anti-human H+L-POD (JIR, JIR109-036-098) was added in 1:5000 dilution and incubated at RT for 1 h on a shaker.

Binder | binding result
B1 | no binding
B14 | no binding

Biological target: T6, human FAP (human, UniProt Q12884 26-760)
T6 construct: also called hFAP
Assay: SPR (Biacore), antibody captured via anti-human IgG Fc, 5 ug/ml human FAP injected alone for 180 s
Source text: Therefore a <Fc> capturing IgG is immobilized on the chip surface and the different DR5TAA CrossMAbs is captured. In the experiment the targets DR5 and FAP were either added individually or simultaneously to the captured CrossMAb.

T6 sequence (Q12884 26-760 limits assumed): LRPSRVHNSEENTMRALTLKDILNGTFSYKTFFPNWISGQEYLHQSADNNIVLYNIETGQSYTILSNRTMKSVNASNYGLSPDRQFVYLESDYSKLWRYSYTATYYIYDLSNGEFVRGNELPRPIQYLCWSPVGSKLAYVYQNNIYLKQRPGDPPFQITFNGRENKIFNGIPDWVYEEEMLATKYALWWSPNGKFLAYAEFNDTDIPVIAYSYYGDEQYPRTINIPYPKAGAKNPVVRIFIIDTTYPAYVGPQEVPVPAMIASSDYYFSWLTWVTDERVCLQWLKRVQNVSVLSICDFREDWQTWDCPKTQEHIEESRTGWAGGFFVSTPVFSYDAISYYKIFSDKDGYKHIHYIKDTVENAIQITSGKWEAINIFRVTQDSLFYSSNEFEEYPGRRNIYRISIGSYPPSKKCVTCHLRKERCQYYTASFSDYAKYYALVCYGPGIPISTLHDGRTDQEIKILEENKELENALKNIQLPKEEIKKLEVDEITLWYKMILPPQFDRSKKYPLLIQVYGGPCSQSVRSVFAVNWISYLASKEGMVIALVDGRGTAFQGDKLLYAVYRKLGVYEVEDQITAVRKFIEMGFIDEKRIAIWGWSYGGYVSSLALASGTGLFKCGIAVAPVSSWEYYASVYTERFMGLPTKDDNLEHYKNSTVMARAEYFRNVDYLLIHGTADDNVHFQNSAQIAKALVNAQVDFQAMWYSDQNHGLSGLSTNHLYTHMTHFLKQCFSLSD

Binder | FAP signal [RU max]
B15 | 41.9 RU
B16 | 38.4 RU
B17 | 7.2 RU
B18 | 7.4 RU
B19 | 18.5 RU

Biological target: T2, human VEGF-A-121-His
Assay: SPR (Biacore T200), VEGF-A-121-His captured via anti-His, antibody in solution, 1:1 Langmuir
Procedure: HBS-N (10 mM HEPES, 150 mM NaCl pH 7.4, GE Healthcare) was used as running buffer during the immobilization procedure. For the following kinetic characterization, sample and running buffer was PBS-T (10 mM phosphate buffered saline including 0.05% Tween® 20) at pH 7.4. The flow cell was set to 25° C.—and the sample block set to 12° C.—and primed with running buffer twice prior to kinetic characterization.
The association was measured by injection of the indicated antibodies in various concentrations in solution for 180 sec at a flow of 30 μl/min starting with 1000 nM in 1:3 serial dilutions. The dissociation phase was monitored for up to 600 sec and triggered by switching from the sample solution to running buffer. The surface was regenerated by 60 sec washing with a Glycine pH 1.5 solution at a flow rate of 30 μl/min. Bulk refractive index differences were corrected by subtracting the response obtained from a anti His antibody surface. Blank injections are also subtracted (=double referencing). For calculation of KD and other kinetic parameters the Langmuir 1:1 model was used.

Binder | Kd
B3 | 6 nM
B4 | 3 nM
B5 | 4 nM
B6 | 4 nM
B7 | 4 nM
B8 | 4 nM
B9 | 3 nM
B10 | 4 nM
B11 | 3 nM
B12 | 4 nM
B13 | 4 nM
